According to US20090324601A1 (published 2009):
Substitutions are numbered along the chain they refer to.

B1: 2.175.3 (antibody, V domains shown)
VH: QVHLVESGGGLVKPGGSLRLSCAASGFTFSDYYMHWIRQAPGKGLEWVSYISRSGSLIYYVDSVKGRFTISRDNAKNSLNLQMNSLRAEDTAVYYCARGGPYSGSPFDYWGQGTLVTVSS
VL: DIQMTQSPSSLSASVGDRVTITCRPSQRISRYLNWYQQKPGKAPKFLIYAASSLPSGVPSRFSGSGSGTDFTLTISTLQPEDFATYYCQQSYSTPPWTFGQGTKVEIK
notes: identified by its values; also called mAb 2.175.3
B2: 2.1623.2 (antibody, V domains shown)
VH: QVQLVESGGGLVKPGGSLRLSCAASGFTFSDYYMNWIRQAPGKGLEWVSFISSSGSTIYYADSVKGRFTISRDNAKNSLYLQMNSLRAEDTAVYYCARDGHIAARGMDVWGQGTTVTVSS
VL: DIQMTQSPSSLSASVGDRVTITCRASQSFSRYINWYQQKPGKAPKLLIYAASSLQGGVPSRFSGSGSGTDFTLAISSLQPEDFATYYCQQTYSTPPITFGQGTRLEIK
B3: 2.1853.3 (antibody, V domains shown)
VH: B2 VH with F50Y, T57I, H101R, A103V
VL: B2 VL with S12C, Q27R, F29I, S30T, I33L, A50G, G56S, A74T, T91S

How the values were obtained:
[1] = biological target: T1, Recombinant human sPDGFR-alpha (R&D catalog# 322-PR/CF) (human, UniProt P16234 24-528); test: soluble PDGFRa binding ELISA, plate coated with recombinant human PDGFR-alpha
T1 construct: extracellular domain; Bought reagent; also called soluble PDGFRa; recombinant soluble PDGFR-alpha extracellular domain
T1 sequence (P16234 24-528): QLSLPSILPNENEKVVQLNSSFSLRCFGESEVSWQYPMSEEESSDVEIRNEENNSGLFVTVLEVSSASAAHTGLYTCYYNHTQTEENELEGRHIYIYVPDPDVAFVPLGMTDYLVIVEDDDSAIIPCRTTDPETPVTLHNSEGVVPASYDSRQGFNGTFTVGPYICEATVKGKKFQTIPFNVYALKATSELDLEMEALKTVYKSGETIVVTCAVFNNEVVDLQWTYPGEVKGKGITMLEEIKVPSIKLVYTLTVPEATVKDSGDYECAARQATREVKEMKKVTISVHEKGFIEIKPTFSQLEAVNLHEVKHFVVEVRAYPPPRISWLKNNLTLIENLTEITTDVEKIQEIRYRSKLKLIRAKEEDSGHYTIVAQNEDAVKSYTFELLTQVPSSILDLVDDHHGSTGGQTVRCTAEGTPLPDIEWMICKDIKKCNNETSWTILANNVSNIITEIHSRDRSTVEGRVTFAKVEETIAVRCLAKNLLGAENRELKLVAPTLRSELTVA

[2] = biological target: T1, Recombinant human sPDGFR-alpha (R&D …); test: Biacore T100 SPR, 22 C, mAb immobilised on CM5, sPDGFR-alpha injected, 1:1 fit
[3] = biological target: T2, PDGFR-alpha on human osteosarcoma MG-63 cells (human, UniProt P16234 24-1089); test: cell-based or functional assay
T2 sequence (P16234 24-1089): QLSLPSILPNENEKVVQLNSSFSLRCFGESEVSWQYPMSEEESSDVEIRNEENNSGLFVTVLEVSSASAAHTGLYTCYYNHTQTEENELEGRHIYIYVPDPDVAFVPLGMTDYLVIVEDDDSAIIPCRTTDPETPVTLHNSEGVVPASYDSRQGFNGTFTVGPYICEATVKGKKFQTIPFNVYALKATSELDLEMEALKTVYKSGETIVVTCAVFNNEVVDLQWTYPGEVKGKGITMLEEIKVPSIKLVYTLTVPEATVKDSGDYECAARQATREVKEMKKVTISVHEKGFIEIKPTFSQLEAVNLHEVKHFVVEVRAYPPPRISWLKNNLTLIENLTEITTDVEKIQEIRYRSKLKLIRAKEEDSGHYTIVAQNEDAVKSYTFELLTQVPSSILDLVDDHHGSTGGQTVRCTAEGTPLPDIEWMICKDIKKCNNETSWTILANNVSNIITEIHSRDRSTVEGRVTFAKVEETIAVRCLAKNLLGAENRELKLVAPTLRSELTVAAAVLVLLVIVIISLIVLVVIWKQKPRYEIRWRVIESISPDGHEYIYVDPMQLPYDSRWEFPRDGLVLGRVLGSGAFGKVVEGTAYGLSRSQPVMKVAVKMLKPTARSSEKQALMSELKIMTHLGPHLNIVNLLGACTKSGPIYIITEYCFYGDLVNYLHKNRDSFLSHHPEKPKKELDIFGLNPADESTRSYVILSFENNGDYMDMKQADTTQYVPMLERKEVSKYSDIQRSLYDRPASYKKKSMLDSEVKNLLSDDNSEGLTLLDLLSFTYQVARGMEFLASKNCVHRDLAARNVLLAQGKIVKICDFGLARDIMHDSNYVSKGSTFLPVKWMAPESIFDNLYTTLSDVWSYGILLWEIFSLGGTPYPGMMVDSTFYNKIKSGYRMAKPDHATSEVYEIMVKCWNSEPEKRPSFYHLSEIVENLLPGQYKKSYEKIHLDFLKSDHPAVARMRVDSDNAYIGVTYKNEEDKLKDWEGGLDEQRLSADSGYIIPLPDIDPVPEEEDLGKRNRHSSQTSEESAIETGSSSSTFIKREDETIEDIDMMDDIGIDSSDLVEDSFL

[4] = biological target: T2, PDGFR-alpha on human osteosarcoma MG-63 …; test: FACS titration on MG-63 cells, 4 C, Cy5 goat anti-human detection
[5] = biological target: T2, PDGFR-alpha on human osteosarcoma MG-63 …; test: cell-based or functional assay; remark: listed apart in the source
[6] = biological target: T3, murine PDGFRa on NIH3T3 cells (murine, UniProt P26618 25-1089); test: FACS on NIH3T3 cells, 10 ug/ml antibody, goat anti-human IgG Cy5
T3 construct: whole, on cells; also called mouse PDGFR-alpha
T3 sequence (P26618 25-1089): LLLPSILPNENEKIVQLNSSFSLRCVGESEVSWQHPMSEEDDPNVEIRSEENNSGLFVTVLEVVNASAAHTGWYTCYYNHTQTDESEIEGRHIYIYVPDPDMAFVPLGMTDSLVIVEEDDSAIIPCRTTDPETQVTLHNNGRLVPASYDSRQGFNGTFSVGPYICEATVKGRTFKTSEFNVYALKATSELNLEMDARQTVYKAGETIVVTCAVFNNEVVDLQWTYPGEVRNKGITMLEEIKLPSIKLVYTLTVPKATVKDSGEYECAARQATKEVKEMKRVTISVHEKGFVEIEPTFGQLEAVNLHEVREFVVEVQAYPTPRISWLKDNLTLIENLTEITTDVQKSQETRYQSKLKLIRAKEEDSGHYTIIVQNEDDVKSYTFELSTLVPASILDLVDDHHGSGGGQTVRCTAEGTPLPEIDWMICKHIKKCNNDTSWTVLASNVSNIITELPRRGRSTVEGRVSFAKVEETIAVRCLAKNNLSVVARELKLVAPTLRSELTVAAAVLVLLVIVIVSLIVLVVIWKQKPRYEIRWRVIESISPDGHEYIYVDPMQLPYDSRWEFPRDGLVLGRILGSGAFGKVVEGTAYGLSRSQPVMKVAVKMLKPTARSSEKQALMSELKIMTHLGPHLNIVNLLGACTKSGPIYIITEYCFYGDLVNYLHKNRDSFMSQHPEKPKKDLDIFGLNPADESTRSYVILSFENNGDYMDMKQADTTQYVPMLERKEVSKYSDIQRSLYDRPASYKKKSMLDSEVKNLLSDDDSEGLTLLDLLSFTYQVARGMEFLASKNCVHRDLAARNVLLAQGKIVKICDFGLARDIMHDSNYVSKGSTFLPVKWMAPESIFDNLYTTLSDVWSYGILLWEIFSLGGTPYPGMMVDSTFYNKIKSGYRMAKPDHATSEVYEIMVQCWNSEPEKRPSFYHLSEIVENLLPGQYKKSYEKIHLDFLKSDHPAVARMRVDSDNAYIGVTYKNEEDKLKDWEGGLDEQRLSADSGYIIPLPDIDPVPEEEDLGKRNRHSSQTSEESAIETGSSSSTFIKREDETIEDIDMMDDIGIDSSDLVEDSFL

| Binder | IC50 [1] [µg/mL] | Kd [2] [nM] | koff [2] [s⁻¹] | kon [2] [M⁻¹ s⁻¹] | Proliferation Assay: IC50 ng/ml (1-6-06) [3] [ng/mL] | Proliferation Assay: IC50 ng/ml (1-23-06) [3] [ng/mL] | Proliferation Assay: IC50 (1-6-06) [3] [nM] | Proliferation Assay: IC50 (1-23-06) [3] [nM] | pTyr Assay: % Inhibition @ 2 µg/ml [3] [%] | Kd [4] [nM] | PTYR Assay IC50 [5] [µg/mL] | binding result [6] |
| --- | --- | --- | --- | --- | --- | --- | --- | --- | --- | --- | --- | --- |
| B1 | 0.038 | 0.05 | 2.59e-05 | 516000 | 67.3 | 56.1 | 0.45 | 0.37 | 100 | 0.328 | 0.028 | binds |
| B2 |  |  |  |  | 755 | 982 |  |  | 97 |  |  | binds |
| B3 |  |  |  |  | 1120 | 2680 |  |  | 98 |  |  | binds |
